The results in this text go back to US20170306037A1 (Novartis, published 2017).

Broadly, the Kd is a measure of binding affinity in units of concentration. A lower Kd goes with higher affinity.

In test [1] the target is T1, human GITR (hGITR), form not stated (human, UniProt Q9Y5U5 26-162, limits assumed).
T1 construct: the construct is not described
T1 sequence: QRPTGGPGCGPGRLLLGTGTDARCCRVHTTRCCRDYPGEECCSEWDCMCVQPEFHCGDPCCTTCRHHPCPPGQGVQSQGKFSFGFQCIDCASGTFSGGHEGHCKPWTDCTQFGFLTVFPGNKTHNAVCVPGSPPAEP
The experiment in a line: Biacore (SPR), IgG. On the technique in general: SPR reads the build-up and loss of mass on a sensor chip optically.

Test [2] addresses cyno GITR (cGITR), form not stated (cynomolgus monkey). As to the kind of experiment: Biacore (SPR), IgG.
In test [3] the target is T2, rat GITR extracellular domain (rat, UniProt F7FFS7 65-198).
T2 construct: also called rodent GITR
T2 sequence: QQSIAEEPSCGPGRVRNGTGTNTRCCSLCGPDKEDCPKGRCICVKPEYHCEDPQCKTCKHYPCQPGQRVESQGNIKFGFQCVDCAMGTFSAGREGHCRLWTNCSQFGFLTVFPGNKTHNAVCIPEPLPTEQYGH
The experiment in a line: ELISA on coated GITR ECD. As for the experimental part: (§1) The plate was blocked with a solution of 1% BSA in PBS for one hour at room temperature and then rinsed three times with PBST. The MAB was then diluted to 0.5 μg/mL or 1 μg/mL in PBS and 20 μL was added to each well. The plate was incubated for 1 hour at room temperature and then washed three times with PBST. […] The plate was incubated for 1 hour at room temperature, and then washed six times with PBST. 25 μL of SureBlue TMB (KPL 52-00-02) substrate was added to each well and the plate was incubated for about 10 min at room temperature.

Test [4] deals with T3, mouse GITR extracellular domain (mouse, UniProt O35714 20-153).
T3 construct: extracellular domain; also called murine GITR; rodent GITR
T3 sequence (looked up): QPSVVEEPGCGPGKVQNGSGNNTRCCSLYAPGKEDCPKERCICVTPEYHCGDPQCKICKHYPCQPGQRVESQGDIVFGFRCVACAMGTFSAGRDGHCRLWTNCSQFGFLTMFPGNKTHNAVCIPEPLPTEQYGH
As to the kind of experiment: ELISA on coated GITR ECD. The method, then:
as §1
In general terms: ELISA stands for enzyme-linked immunosorbent assay.

The target of test [5] is cyno GITR (cGITR), form not stated (cynomolgus monkey). As to the kind of experiment: Biacore (SPR).
The target in another test is T4, OPG (human, UniProt O00300).
T4 sequence (receptor, looked up): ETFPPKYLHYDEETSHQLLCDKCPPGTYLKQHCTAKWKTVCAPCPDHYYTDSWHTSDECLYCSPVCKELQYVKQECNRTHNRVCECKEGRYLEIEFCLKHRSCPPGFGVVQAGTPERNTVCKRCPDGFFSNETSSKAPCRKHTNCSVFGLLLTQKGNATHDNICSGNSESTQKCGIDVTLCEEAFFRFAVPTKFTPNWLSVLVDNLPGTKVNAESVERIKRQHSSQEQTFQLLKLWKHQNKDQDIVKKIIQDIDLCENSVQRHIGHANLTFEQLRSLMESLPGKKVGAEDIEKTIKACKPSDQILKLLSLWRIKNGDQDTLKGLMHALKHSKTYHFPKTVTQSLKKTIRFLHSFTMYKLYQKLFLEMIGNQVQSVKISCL
The experiment in a line: specificity ELISA, bacterial lysate on HisGrab nickel plate. The method, then:
(§2) For the specificity ELISA, a crude cell lysate was made from bacteria expressing members of the TNFRSF family. To prevent nonspecific binding to the plate 50 μL of 5% BSA was added per mL of bacterial lysate. […] The plate was then rinsed three times with PBST, then MAB was diluted to 0.5 μg/mL in 10% FBS in PBS and 100 μL was added to each well. The plate was incubated for 1 hour at room temperature and then rinsed three times with PBST. Anti-human kappa antibody (Sigma #A7164) conjugated to HRP was diluted 1:5000 in 1:1 PBST: 10% FBS in PBS and 100 μL added to each well. The plate was incubated for 1 hour at room temperature, and then washed three times with PBST. 100 μL of SureBlue TMB substrate was added to each well and the plate was incubated for about 10 min at room temperature before stopping the reaction with 100 μL /well of 2N H₂SO₄.

The target of a further test is T5, CD30 (human, UniProt P28908).
T5 sequence (receptor, looked up): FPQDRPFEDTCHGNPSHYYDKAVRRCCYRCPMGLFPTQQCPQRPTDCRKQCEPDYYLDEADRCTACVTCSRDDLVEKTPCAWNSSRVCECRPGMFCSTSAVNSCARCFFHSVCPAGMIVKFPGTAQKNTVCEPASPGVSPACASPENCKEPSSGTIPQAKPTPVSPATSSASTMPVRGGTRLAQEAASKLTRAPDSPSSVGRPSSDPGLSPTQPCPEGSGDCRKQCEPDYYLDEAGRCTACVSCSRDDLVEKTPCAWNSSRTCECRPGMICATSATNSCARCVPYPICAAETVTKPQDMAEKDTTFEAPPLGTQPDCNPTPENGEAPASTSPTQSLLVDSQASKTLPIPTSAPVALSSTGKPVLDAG
Described as above. As for the experimental part:
as §2

The next test addresses T6, HVEM (human, UniProt Q92956).
T6 sequence (receptor, looked up): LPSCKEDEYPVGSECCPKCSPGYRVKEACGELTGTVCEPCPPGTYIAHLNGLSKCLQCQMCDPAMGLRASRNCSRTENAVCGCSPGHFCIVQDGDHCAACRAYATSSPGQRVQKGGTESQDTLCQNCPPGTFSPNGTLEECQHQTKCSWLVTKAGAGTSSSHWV
Described as above. The method, then: as §2

The target of a further test is T7, DcR2 (human, UniProt Q9UBN6).
T7 sequence (receptor, looked up): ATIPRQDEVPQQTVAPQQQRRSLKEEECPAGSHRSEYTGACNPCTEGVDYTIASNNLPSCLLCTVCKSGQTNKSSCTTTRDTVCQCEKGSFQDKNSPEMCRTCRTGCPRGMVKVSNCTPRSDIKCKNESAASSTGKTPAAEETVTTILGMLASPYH
Described as above. The method, then: as §2

In test [6] the target is T8, human GITR expressed on cells (human, UniProt Q9Y5U5 27-241).
T8 sequence: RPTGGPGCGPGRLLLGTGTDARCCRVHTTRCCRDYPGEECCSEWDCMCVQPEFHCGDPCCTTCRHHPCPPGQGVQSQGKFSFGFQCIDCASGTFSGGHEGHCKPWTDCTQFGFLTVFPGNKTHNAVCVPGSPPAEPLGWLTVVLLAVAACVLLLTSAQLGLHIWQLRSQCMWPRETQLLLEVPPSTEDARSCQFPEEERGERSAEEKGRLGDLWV
The experiment in a line: cell-based or functional assay.

B1: MAB4 (IgG1 kappa) (antibody, V domains shown)
VH: EVQLVESGGGLVQSGGSLRLSCAASGFSLSSYGVDWVRQAPGKGLEWVGVIWGGGGTYYASSLMGRFTISRDNSKNTLYLQMNSLRAEDTAVYYCAKHAYGHDGGFAMDYWGQGTLVTVSS
VL: EIVMTQSPATLSVSPGERATLSCRASESVSSNVAWYQQRPGQAPRLLIYGASNRATGIPARFSGSGSGTDFTLTISRLEPEDFAVYYCGQSYSYPFTFGQGTKLEIKR
As to B1, the Kd in test [1] amounted to 0.684 nM; in test [2], 1.78 nM. Also, the binding result in [3] is reported as “no binding (tested: not on the sheet; paragraph 336: 0.5 or 1 µg/mL)”; in test [4], “no binding (tested: not on the sheet; paragraph 336: 0.5 or 1 µg/mL)”; with OPG, “no binding (tested: not on the sheet; paragraph 335: 0.5 µg/mL)”; with CD30, “no binding (tested: not on the sheet; paragraph 335: 0.5 µg/mL)”; with HVEM, “no binding (tested: not on the sheet; paragraph 335: 0.5 µg/mL)”; with DcR2 it was “no binding (tested: not on the sheet; paragraph 335: 0.5 µg/mL)”. Also, in test [5], the “fold lower binding affinity for cyno GITR than for human GITR” value is 2 to 3 fold. For the same molecule, the “EC50, NFκB-luciferase reporter in 293 cells overexpressing human GITR, antibody cross-linked” value in test [6] was ~2.5 nM.

B2: MAB5 (IgG1 kappa) (antibody, V domains shown)
VH: EVQLVESGGGLVQSGGSLRLSCAASGFSLSSYGVDWVRQAPGKGLEWLGVIWGGGGTYYTSSLMGRFTISRDNSKNTLYLQMNSLRAEDTAVYYCAKHAYGHDGGFAMDYWGQGTLVTVSS
VL: EIVMTQSPATLSVSPGERATLSCRASESVSSNVAWYQQRPGQAPRLLIYGASNRATGIPARFSGSGSGTDFTLTISRLEPEDFAVYYCGQSYSYPFTFGQGTKLEIKR
notes: also called MABS (misprint of MAB5)
For B2, the Kd is 0.973 nM in test [1] and 1.87 nM in [2]. Also, the binding result in [3] is “no binding (tested: not on the sheet; paragraph 336: 0.5 or 1 µg/mL)”; in [4] it was “no binding (tested: not on the sheet; paragraph 336: 0.5 or 1 µg/mL)”; with OPG it was “no binding (tested: not on the sheet; paragraph 335: 0.5 µg/mL)”; with CD30 it was “no binding (tested: not on the sheet; paragraph 335: 0.5 µg/mL)”; in the test with HVEM, “no binding (tested: not on the sheet; paragraph 335: 0.5 µg/mL)”; in the test with DcR2 it was “no binding (tested: not on the sheet; paragraph 335: 0.5 µg/mL)”. Besides, the “fold lower binding affinity for cyno GITR than for human GITR” value in test [5] was 2 to 3 fold. Also, the “EC50, NFκB-luciferase reporter in 293 cells overexpressing human GITR, antibody cross-linked” value in test [6] is ~2.5 nM.
